Assay [1] deals with HLA-B*44:03. As to the kind of experiment: IEDB peptide-MHC binding, purified MHC/competitive/radioactivity; filed as Kd, often an IC50 or EC50 that approximates it; ≥ and ≤ were set here for values at or beyond the usual limits of such assays.
The target of assay [2] is HLA-B*44:02. The assay is described as above.
In assay [3] the target is HLA-B*53:01. Described as above.
Assay [4] addresses HLA-A*68:02. Described as above.
Assay [5] deals with HLA-A*24:02. As to the kind of experiment: IEDB peptide-MHC binding, purified MHC/competitive/fluorescence; ≥ and ≤ were set here for values at or beyond the usual limits of such assays.
Assay [6] deals with HLA-A*02:01. The assay is described as above.
The target of assay [7] is HLA-B*51:01. Briefly: IEDB peptide-MHC binding, purified MHC/competitive/radioactivity; filed as Kd, often an IC50 or EC50 that approximates it; ≥ and ≤ were set here for values at or beyond the usual limits of such assays.
For assay [8], the target named is HLA-A*26:01. The assay is described as above.
Assay [9] concerns the target HLA-B*40:01. As to the kind of experiment: IEDB peptide-MHC binding, purified MHC/direct/fluorescence; filed as Kd, often an IC50 or EC50 that approximates it; ≥ and ≤ were set here for values at or beyond the usual limits of such assays. To be noted: source organism: Mycobacterium tuberculosis.
Assay [10] has as its target HLA-A*32:01. Briefly: IEDB peptide-MHC binding, purified MHC/competitive/radioactivity; filed as Kd, often an IC50 or EC50 that approximates it; ≥ and ≤ were set here for values at or beyond the usual limits of such assays. To be noted: source organism: Dengue virus 1 Brazil/97-11/1997.
Assay [11] deals with HLA-B*57:01. As to the kind of experiment: IEDB peptide-MHC binding, purified MHC/direct/fluorescence; filed as Kd, often an IC50 or EC50 that approximates it; ≥ and ≤ were set here for values at or beyond the usual limits of such assays.
For assay [12], the target named is HLA-B*58:01. Described as above.
Assay [13] deals with HLA-B*15:01. Described as above. The settings on record: source organism: Homo sapiens.
In assay [14] the target is HLA-B*07:02. The description is as above. The settings on record: source organism: Homo sapiens.
Assay [15] addresses HLA-A*02:06. As to the kind of experiment: IEDB peptide-MHC binding, purified MHC/competitive/radioactivity; filed as Kd, often an IC50 or EC50 that approximates it; ≥ and ≤ were set here for values at or beyond the usual limits of such assays. To be noted: source organism: Trypanosoma cruzi.
The target of assay [16] is HLA-A*02:02. The description is as above. To be noted: source organism: Trypanosoma cruzi.
In assay [17] the target is HLA-A*02:03. Described as above. To be noted: source organism: Trypanosoma cruzi.
Assay [18] deals with HLA-A*69:01. Briefly: IEDB peptide-MHC binding, purified MHC/direct/fluorescence; filed as Kd, often an IC50 or EC50 that approximates it; ≥ and ≤ were set here for values at or beyond the usual limits of such assays. The settings on record: source organism: Homo sapiens.
Assay [19] has as its target HLA-A*11:01. Described as above. The settings on record: source organism: Homo sapiens.
The target of assay [20] is HLA-A*01:01. Described as above. The settings on record: source organism: Homo sapiens.
The mark [21] stands for this setting: source organism: Dengue virus 1 Brazil/97-11/1997.
The mark [22] stands for this setting: source organism: Zaire ebolavirus.
The mark [23] stands for this setting: source organism: Dengue virus 4 Philippines/H241/1956.
Setting [24] is: source organism: Dengue virus 2 Jamaica/1409/1983.
[25] abbreviates: source organism: Dengue virus 2 Peru/IQT2913/1996.
[26] abbreviates: source organism: Dengue virus 3 Martinique/1243/1999.
Setting [27] is: source organism: Dengue virus 4 Dominica/814669/1981.
[28] abbreviates: source organism: Toxoplasma gondii.
Setting [29] is: source organism: Sudan ebolavirus.
Where [30] appears, read: source organism: Brucella abortus 2308.

One may read the Kd as the concentration at which binding is half-saturated. With NEGIMAIGI, the Kd stood at 109 nM in assay [1] (setting [21]) and 18.8 nM in assay [2] (setting [21]).

As for LALREFKEF, the Kd in assay [3] (setting [21]) was found to be 1730 nM.

Turning to NLQKESRACL, in [4] (source organism: Homo sapiens), the Kd is 19700 nM.

Broadly, the IC50 is the midpoint of a concentration-inhibition curve. Read a high IC50 as weaker potency. With RTLAAMPEE, the figures for the IC50 in assay [5] (setting [22]) and in [6] (setting [22]) were 6750 nM and at least 351000 nM, respectively.

EEHKETWHY: the Kd stood at 16.9 nM in assay [1] (setting [23]) and 203 nM in [2] (setting [23]).

As to ADSGCVINW, the Kd in assay [2] (setting [21]) was 70.7 nM.

On to TVFFVLMML, for which the Kd in assay [4] (setting [23]) worked out at 36 nM.

As to EPEVANLDI, the figures for the Kd in [3] (setting [21]) and in [7] (setting [21]) were 7230 nM and at least 44500 nM, respectively.

On to QRWGGTCHI, for which, in [5] (setting [22]), the IC50 worked out at 43300 nM.

As for QPTELKYSW, in [3] (setting [24]), the Kd came to 11 nM.

With EAIMAVGMV, the values for the Kd in [8] (setting [24]) and in assay [4] (setting [24]) were 43.9 nM and 1.79 nM, respectively.

As for NEIRALMAL, in assay [9], the Kd is 18.2 nM.

QPTELRYSW: the Kd in assay [3] (setting [25]) is 52.6 nM.

On to EEPVPMSTY, for which the Kd in [2] (setting [26]) was determined as 360 nM.

For the sequence ELRRQVDQL, the Kd in assay [4] (source organism: Homo sapiens) stood at 1210 nM.

In the case of NELNYILWE, the Kd in assay [1] (setting [26]) was determined as 270 nM.

In the case of SHLTTLATI, the IC50 was determined as 402 nM in [5] (setting [22]) and 13200 nM in [6] (setting [22]).

As to EVLTLATGPI, the Kd is 10400 nM in assay [8] (setting [27]) and 100 nM in assay [4] (setting [27]).

As to VTPSMTMRCV, the Kd in assay [4] (setting [26]) was 193 nM.

MEHKYSWKSW: the Kd was 137 nM in assay [1] (setting [21]), 11.2 nM in assay [2] (setting [21]) and 2040 nM in [10].

With CTILAVVSV, in assay [4] (source organism: Dengue virus 2 16681-PDK53), the Kd came to 54.1 nM.

Turning to AERVLDWLEK, the Kd in assay [2] (setting [21]) was found to be 3270 nM.

KTSGRGSCM: the values for the Kd in assay [11] (setting [28]) and in [12] (setting [28]) were at least 20000 nM and 6000 nM, respectively.

On to ETYQLWTALI, for which the Kd in assay [8] (setting [26]) was 114 nM; in assay [4] (setting [26]), 2.28 nM.

With MSPGYVLGV, in [4] (setting [27]), the Kd is 99.6 nM.

For the sequence KRSNTTGKL, the IC50 in assay [5] (setting [22]) was 66100 nM.

Consider HAYQGDYKL, for which the figures for the IC50 in assay [5] (setting [22]) and in assay [6] (setting [22]) were 20900 nM and at least 78000 nM, respectively.

As for WPLSKMDIGV, the Kd in assay [7] (setting [25]) was 2670 nM.

For the sequence FHKDGAFFL, the IC50 in assay [5] (setting [29]) is 6730 nM; in assay [6] (setting [29]), at least 92900 nM.

Consider NESDPEGALW, for which the values for the Kd in assay [1] (setting [21]) and in assay [2] (setting [21]) were 134 nM and 26.6 nM, respectively.

RQLQKIERW registered a Kd in assay [11] (source organism: Yellow fever virus) of 405 nM.

Turning to VSRLEHQMW, the Kd in assay [11] (source organism: West Nile virus) is 90.5 nM.

KLEGDSTDL: in assay [4] (source organism: Homo sapiens), the Kd was 2050 nM.

Consider VARGARFFL, for which the Kd in assay [11] (setting [30]) is 509 nM; in assay [12] (setting [30]), at least 20000 nM.

For the sequence AMYADDTAGW, the Kd in [2] (setting [24]) came to 124 nM.

TPEGIIPSMF: the Kd in [3] (setting [24]) turned out to be 417 nM.

Consider KDFFSSHPL, for which the IC50 in [5] (setting [22]) is 55100 nM; in assay [6] (setting [22]), at least 249000 nM.

LPHQPLATY: the Kd in assay [13] amounted to 2350 nM; in assay [14], 5980 nM.

With FVNYNFTLV, the Kd was found to be 0.0031 nM in assay [15], 10.4 nM in [16], 0.336 nM in assay [4] (source organism: Trypanosoma cruzi) and 0.759 nM in [17].

On to GTNGNHMQI, for which the IC50 stood at 3020 nM in assay [5] (setting [29]) and 62900 nM in assay [6] (setting [29]).

For the sequence SSVNVSLTAI, the Kd in assay [4] (setting [24]) was determined as 184 nM.

Consider GVVTRSGAYV, for which the Kd in [4] (setting [24]) was 333 nM.

Turning to GSEDRDLLY, the Kd in assay [18] is 3960 nM; in assay [19], 6940 nM; in assay [20] it was 42.6 nM.

(Values after the Immune Epitope Database (IEDB).)
